The values below come from PMC9816786.

This experiment concerns the target Human PCSK9 (full length), 6xHis-tagged, purified (human) (UniProt Q8NBP7). The experiment can be described thus: BLI; biotinylated PCSK9 or biotinylated CHRD immobilised (0.2 μg/ml), CAP1 in solution, pH 7.5, association and dissociation 600 s. (In general: In BLI a coated tip is dipped into the sample, and binding shifts an interference pattern.)

Sequence of Human CAP1 (cyclase associated protein 1), 6xHis-tagged, purified (Q01518 whole entry): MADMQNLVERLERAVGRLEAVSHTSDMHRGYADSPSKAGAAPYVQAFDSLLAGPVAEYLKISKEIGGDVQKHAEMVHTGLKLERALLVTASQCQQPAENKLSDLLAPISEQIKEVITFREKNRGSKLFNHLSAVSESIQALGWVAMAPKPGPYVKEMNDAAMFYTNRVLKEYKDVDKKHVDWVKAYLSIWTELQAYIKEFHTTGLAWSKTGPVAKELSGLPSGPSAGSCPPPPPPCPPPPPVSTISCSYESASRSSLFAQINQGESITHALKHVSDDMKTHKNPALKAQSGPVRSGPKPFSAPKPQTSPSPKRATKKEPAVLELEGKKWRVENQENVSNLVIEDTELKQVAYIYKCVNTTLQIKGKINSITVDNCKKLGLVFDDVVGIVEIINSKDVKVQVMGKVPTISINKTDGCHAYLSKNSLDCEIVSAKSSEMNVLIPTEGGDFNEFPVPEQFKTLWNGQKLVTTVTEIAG

Broadly, the Kd is the free concentration of one partner at which half of the binding sites on the other are occupied at equilibrium, for simple one-to-one binding. A low value points to a tighter complex. By koff is commonly meant the rate constant with which the complex falls apart. A high value points to a short-lived complex. For orientation: kon means the rate constant with which the complex forms. Lower therefore signals slow association. Substance “Human CAP1 (cyclase associated protein 1), 6xHis-tagged, purified (from UniProt Q01518 1-475) (natural protein)” returned a Kd of 1360 nM, a koff of 0.00094 s⁻¹ and a kon of 690 M⁻¹ s⁻¹.
